Test [1] deals with Myostatin (UniProt O14793). Briefly: cell-based or functional assay.
The target in test [2] is Myostatin (UniProt O14793). Briefly: SPR (Biacore T100), myostatin injected, Langmuir 1:1 model. On the technique in general: SPR reads the build-up and loss of mass on a sensor chip optically.
Test [3] has as its target Myostatin (UniProt O14793). Briefly: SPR (Biacore T100): Fc fusion captured by anti-human antibody on a CM4 chip, myostatin injected as analyte, Langmuir 1:1 model.

Chain of Myostatin (O14793 267-375 limits assumed): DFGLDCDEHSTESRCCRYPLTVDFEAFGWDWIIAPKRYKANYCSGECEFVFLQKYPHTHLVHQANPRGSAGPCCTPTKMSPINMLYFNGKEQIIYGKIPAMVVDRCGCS
Chain of Activin Receptor 2B-FC (Fc fusion) (Q13705 19-137): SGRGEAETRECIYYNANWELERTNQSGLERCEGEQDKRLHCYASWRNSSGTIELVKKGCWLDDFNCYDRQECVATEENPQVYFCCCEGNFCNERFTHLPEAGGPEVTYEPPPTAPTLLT

hNOPE (1-620) ECD-FC (Fc fusion) gave an IC50 of inhibition of myostatin dependent SMAD2/3 activation (luciferase reporter, HEK293, 0.1 nM myostatin) with Myostatin [1] of 0.17 nM.
Activin Receptor 2B-FC (Fc fusion) showed a Kd with Myostatin [2] of 2.5 nM. In the test with Myostatin [3], the koff came to 0.00098 s⁻¹ and the on-rate (kon) was determined as 390000 M⁻¹ s⁻¹.

The Kd is the constant that tells how readily two partners part at equilibrium. A low value points to tighter binding. Broadly, the koff is the rate constant with which the complex falls apart. A low value points to slow dissociation. Usually kon stands for the rate constant with which the complex forms. Lower therefore signals slower complex formation.

Values taken from patent publication US20190125833A1.
